# Where a chain is given by its changes, count along the chain named. Numbers in names are those of the source.
# B1: PR000401 (bispecific antibody, human IgG1, kappa, L234A L235A)
# light: DIQMTQSPSTLSASVGDRVTVTCRASQSIYIWLAWYQQKPGKAPNLLIYKASSLETGVPSRFSGSGSGTEFTLTISSLQPDDFATYYCQQYYGSSRTFGQGTKVEIKRTVAAPSVFIFPPSDEQLKSGTASVVCLLNNFYPREAKVQWKVDNALQSGNSQESVTEQDSKDSTYSLSSTLTLSKADYEKHKVYACEVTHQGLSSPVTKSFNRGEC
# chain: EVQLVESGGGLVQPGGSLRLSCAASGFTFSSYWMSWVRQAPGKGLEWVANIKQEGSEKYYVDSVKGRFTISRDNAKNSLYLQMNSLRAEDTAVYYCARDRAVAGAFDIWGQGTMVTVSSASTKGPSVFPLAPSSKSTSGGTAALGCLVKDYFPEPVTVSWNSGALTSGVHTFPAVLQSSGLYSLSSVVTVPSSSLGTQTYICNVNHKPSNTKVDKKVEPKSCDKTHTCPPCPAPEAAGGPSVFLFPPKPKDTLMISRTPEVTCVVVDVSHEDPEVKFNWYVDGVEVHNAKTKPREEQYNSTYRVVSVLTVLHQDWLNGKEYKCKVSNKALGAPIEKTISKAKGQPREPQVYTLPPSREEMTKNQVSLTCLVKGFYPSDIAVEWESNGQPENNYKTTPPVLDSDGSFFLYSKLTVDKSRWQQGNVFSCSVMHEALHNHYTQKSLSLSPGKLEPKSSDKTHTPPPPPRTEVQLVESGGGLIQPGGSLRLSCAVSGFTVSKNYMSWVRQAPGKGLEWVSVVYSGGSKTYADSVKGRFTISRDNSKNTLYLQMNSLRAEDTAVYYCARAVPHSPSSFDIWGQGTMVTVSS
# notes: PD-L1×CTLA4, structure 5
# B2: PR000402 (bispecific antibody, human IgG1, kappa, L234A L235A)
# light: B1 light
# chain: EVQLVESGGGLVQPGGSLRLSCAASGFTFSSYWMSWVRQAPGKGLEWVANIKQEGSEKYYVDSVKGRFTISRDNAKNSLYLQMNSLRAEDTAVYYCARDRAVAGAFDIWGQGTMVTVSSASTKGPSVFPLAPSSKSTSGGTAALGCLVKDYFPEPVTVSWNSGALTSGVHTFPAVLQSSGLYSLSSVVTVPSSSLGTQTYICNVNHKPSNTKVDKKVEPKSCDKTHTCPPCPAPEAAGGPSVFLFPPKPKDTLMISRTPEVTCVVVDVSHEDPEVKFNWYVDGVEVHNAKTKPREEQYNSTYRVVSVLTVLHQDWLNGKEYKCKVSNKALGAPIEKTISKAKGQPREPQVYTLPPSREEMTKNQVSLTCLVKGFYPSDIAVEWESNGQPENNYKTTPPVLDSDGSFFLYSKLTVDKSRWQQGNVFSCSVMHEALHNHYTQKSLSLSPGKLGGGGSGGGGSGGGGSRTEVQLVESGGGLIQPGGSLRLSCAVSGFTVSKNYMSWVRQAPGKGLEWVSVVYSGGSKTYADSVKGRFTISRDNSKNTLYLQMNSLRAEDTAVYYCARAVPHSPSSFDIWGQGTMVTVSS
# notes: PD-L1×CTLA4, structure 5
# B3: PR001609 (bispecific antibody, human IgG1, kappa)
# light: B1 light
# heavy: not shown
# chain: EVQLVESGGGLIQPGGSLRLSCAVSGFTVSKNYMSWVRQAPGKGLEWVSVVYSGGSKTYADSVKGRFTISRDNSKNTLYLQMNSLRAEDTAVYYCARAVPHSPSSFDIWGQGTMVTVSSEPKSSDKTHTCPPCPAPELLGGPSVFLFPPKPKDTLMISRTPEVTCVVVDVSHEDPEVKFNWYVDGVEVHNAKTKPREEQYNSTYRVVSVLTVLHQDWLNGKEYKCKVSNKALPAPIEKTISKAKGQPREPQVCTLPPSREEMTKNQVSLSCAVKGFYPSDIAVEWESNGQPENNYKTTPPVLDSDGSFFLVSKLTVDKSRWQQGNVFSCSVMHEALHNHYTQKSLSLSPGK
# notes: PD-L1×CTLA4, structure 11 Fab-Fc-VH, knob/hole
# B4: PR001610 (bispecific antibody, human IgG1, kappa)
# light: B1 light
# heavy: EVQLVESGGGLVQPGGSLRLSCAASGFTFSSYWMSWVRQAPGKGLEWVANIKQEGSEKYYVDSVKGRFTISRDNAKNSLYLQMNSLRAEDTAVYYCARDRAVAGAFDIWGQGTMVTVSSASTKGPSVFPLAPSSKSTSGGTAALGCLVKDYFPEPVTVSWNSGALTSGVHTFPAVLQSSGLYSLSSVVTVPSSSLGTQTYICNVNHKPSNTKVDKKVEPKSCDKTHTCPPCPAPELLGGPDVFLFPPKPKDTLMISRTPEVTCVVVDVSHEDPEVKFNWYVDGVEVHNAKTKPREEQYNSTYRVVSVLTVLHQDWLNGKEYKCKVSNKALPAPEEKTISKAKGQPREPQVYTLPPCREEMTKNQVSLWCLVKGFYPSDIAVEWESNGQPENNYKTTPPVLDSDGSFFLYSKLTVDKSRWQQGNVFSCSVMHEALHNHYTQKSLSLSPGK
# chain: B3 chain with S143D, I236E
# notes: PD-L1×CTLA4, structure 11, knob/hole, DE
# B5: PR001574 (bispecific antibody, human IgG1, kappa)
# chain: EVQLVESGGGLIQPGGSLRLSCAVSGFTVSKNYMSWVRQAPGKGLEWVSVVYSGGSKTYADSVKGRFTISRDNSKNTLYLQMNSLRAEDTAVYYCARAVPHSPSSFDIWGQGTMVTVSSKLEPKSSDKTHTPPPPPRTDIQMTQSPSTLSASVGDRVTVTCRASQSIYIWLAWYQQKPGKAPNLLIYKASSLETGVPSRFSGSGSGTEFTLTISSLQPDDFATYYCQQYYGSSRTFGQGTKVEIKRTVAAPSVFIFPPSDEQLKSGTASVVCLLNNFYPREAKVQWKVDNALQSGNSQESVTEQDSKDSTYSLSSTLTLSKADYEKHKVYACEVTHQGLSSPVTKSFNRGEC
# heavy: not shown
# notes: PD-L1×CTLA4, structure 4
# B6: PR001575 (bispecific antibody, human IgG1, kappa)
# chain 1: B5 chain
# chain 2: not shown
# notes: PD-L1×CTLA4, structure 9
# B7: PR001572 (bispecific antibody, human IgG1, kappa)
# chain 1: B5 chain
# chain 2: not shown
# notes: PD-L1×CTLA4, structure 9 2×VH-IgG
# B8: PR001577 (bispecific antibody, human IgG1, kappa)
# chain: B5 chain
# heavy: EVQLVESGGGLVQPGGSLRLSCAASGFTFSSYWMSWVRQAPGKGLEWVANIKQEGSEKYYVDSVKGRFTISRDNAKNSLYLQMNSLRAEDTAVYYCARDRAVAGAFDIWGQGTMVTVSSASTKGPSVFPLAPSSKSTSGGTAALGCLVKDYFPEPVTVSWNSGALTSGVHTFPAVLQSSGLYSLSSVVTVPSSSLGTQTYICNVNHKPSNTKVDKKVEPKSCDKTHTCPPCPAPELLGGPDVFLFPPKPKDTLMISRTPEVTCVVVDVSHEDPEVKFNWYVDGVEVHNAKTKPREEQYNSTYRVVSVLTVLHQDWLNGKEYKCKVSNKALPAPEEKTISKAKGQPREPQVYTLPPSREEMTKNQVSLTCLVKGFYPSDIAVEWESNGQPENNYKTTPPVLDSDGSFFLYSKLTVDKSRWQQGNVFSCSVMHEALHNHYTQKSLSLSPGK
# notes: PD-L1×CTLA4, structure 4, Fc S239D, I332E
# Target: T1, human PD-L1 on cells (CHO-K1/hPDL1; MDA-MB-231) (human, UniProt Q9NZQ7 19-290)
# T1 construct: whole, on cells
# Test: FACS, MDA-MB-231 cells
# T1 sequence (Q9NZQ7 19-290): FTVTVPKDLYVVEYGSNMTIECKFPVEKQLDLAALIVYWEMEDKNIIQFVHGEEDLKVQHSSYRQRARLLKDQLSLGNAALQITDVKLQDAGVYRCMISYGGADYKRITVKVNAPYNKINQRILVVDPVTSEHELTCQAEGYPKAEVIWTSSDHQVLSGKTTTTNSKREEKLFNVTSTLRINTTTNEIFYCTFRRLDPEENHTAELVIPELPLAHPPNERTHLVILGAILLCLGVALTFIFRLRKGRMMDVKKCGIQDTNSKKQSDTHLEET
Binder,EC50 [nM],Maximum MFI [MFI]
B1,0.288,994
B2,0.259,841

# Target: T2, human CTLA4 on cells (CHO-K1/hCTLA4; HEK293/hCTLA4; 293F-hCTLA4) (human, UniProt P16410 36-223)
# T2 construct: whole, on cells
# Test: FACS, HEK293/hCTLA4 cells
# T2 sequence (P16410 36-223): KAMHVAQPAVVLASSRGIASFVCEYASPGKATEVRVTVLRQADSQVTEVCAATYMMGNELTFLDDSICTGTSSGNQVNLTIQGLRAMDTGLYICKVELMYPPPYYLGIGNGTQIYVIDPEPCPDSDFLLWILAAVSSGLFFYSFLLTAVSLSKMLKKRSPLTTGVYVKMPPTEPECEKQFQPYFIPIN
Binder,EC50 [nM],Maximum MFI [MFI]
B1,5.17,1910
B2,2.4,1760

# Target: T2, human CTLA4 on cells (CHO-K1/hCTLA4; …)
# Test: FACS, CHO-K1/hCTLA4 cells (Test 2)
Binder,Maximum MFI [MFI],EC50 [nM]
B3,355,
B4,468,
B5,677,12
B6,415,5.08
B7,434,2.91
B8,585,8.52

# Target: T1, human PD-L1 on cells (CHO-K1/hPDL1; …)
# Test: FACS, CHO-K1/hPDL1 cells (Experiment 2)
Binder,EC50 [nM],Maximum MFI [MFI]
B3,1.51,11200
B4,1.37,11100
B5,0.93,6710
B6,2.41,5880
B7,1.07,5830
B8,0.96,6610

# Target: T1, human PD-L1 on cells (CHO-K1/hPDL1; …)
# Test: competition FACS: biotinylated PD-1 to CHO-K1/hPDL1 cells
row,Binder,fold poorer IC50 than the parent monoclonal antibody [fold]
1,B3,4 to 5
2,B4,4 to 5
3,B5,2 to 3
4,B6,4 to 6
5,B7,4 to 6
6,B8,2 to 3

# Target: T2, human CTLA4 on cells (CHO-K1/hCTLA4; …)
# Test: competition FACS: biotinylated B7-1-Fc to CHO-K1/hCTLA4 cells (Test 2)
Binder,IC50 [nM],Maximum inhibition rate (%)
B3,98.3,95
B4,96.6,61.3
B5,4.49,99.8
B6,3.79,100
B7,2.98,100
B8,4.88,99.7

# Target: T1, human PD-L1 on cells (CHO-K1/hPDL1; …)
# Test: competition FACS: biotinylated PD-1 to CHO-K1/hPDL1 cells (Experiment 2)
Binder,IC50 [nM],Maximum inhibition rate (%)
B3,1.12,81.6
B4,1.23,80.2
B5,0.88,81.1
B6,1.74,81.7
B7,1.4,80.7
B8,0.61,81

# Reference: patent US20230322953A1 (HARBOUR BIOMED SHANGHAI, published 2023)
